What was measured:
Details in all cases: reference: wild type mice; sites S89
14-3-3 epsilon (14-3-3ε) [1] = biological target: 14-3-3 epsilon (14-3-3ε) (UniProt P62259); test: anti-14-3-3ε IP, p300 immunoblot
14-3-3 epsilon (14-3-3ε) [2] = biological target: 14-3-3 epsilon (14-3-3ε) (UniProt P62259); test: anti-p300 IP, 14-3-3ε immunoblot
β-catenin = β-catenin (UniProt Q02248); test: anti-p300 IP, β-catenin immunoblot, nuclear extract

Measured: binding against the reference

p300 (from UniProt B2RWS6) p300 S89A knock-in mice
weaker: all assays above
